Tests used:
[1] = molecular target: bee brain calcium channels (Apis mellifera brain neurons, ICa) (Apis mellifera); assay: cell-based or functional assay
[2] = molecular target: mouse trigeminal (sensory) neuron calcium channels (ICa) (mouse); assay: cell-based or functional assay

Row | Substance | EC50 for inhibition of ICa [1] [nM] | preference for insect versus vertebrate calcium channels (against m4) [1] [fold] | EC50 for inhibition of ICa in bee neurons [1] [nM] | EC50 for inhibition of a component of ICa in mouse sensory neurons [2] [nM] | maximum ICa inhibition in mouse sensory neurons [2] [%]
1 | omega-atracotoxin-Hv2a (peptide) | 0.15 | > 50000 |  |  | 
2 | ω-agatoxin-IVA (from UniProt P30288 1-48) (peptide) |  | 2 | 10 | 20 | 40

Reference: patent US20110239331A1
